Test results: PMC6013482, “Conformational switching of the pseudokinase domain promotes human MLKL tetramerization and cell death by necroptosis” (Nature Communications, 2018)
Where a chain is given by its changes, count along the chain named. Numbers in names are those of the source.

B1: wild-type human MLKL (residues 2–471), recombinant (natural protein, UniProt Q8NB16 2-471, looked up)
chain: ENLKHIITLGQVIHKRCEEMKYCKKQCRRLGHRVLGLIKPLEMLQDQGKRSVPSEKLTTAMNRFKAALEEANGEIEKFSNRSNICRFLTASQDKILFKDVNRKLSDVWKELSLLLQVEQRMPVSPISQGASWAQEDQQDADEDRRAFQMLRRDNEKIEASLRRLEINMKEIKETLRQYLPPKCMQEIPQEQIKEIKKEQLSGSPWILLRENEVSTLYKGEYHRAPVAIKVFKKLQAGSIAIVRQTFNKEIKTMKKFESPNILRIFGICIDETVTPPQFSIVMEYCELGTLRELLDREKDLTLGKRMVLVLGAARGLYRLHHSEAPELHGKIRSSNFLVTQGYQVKLAGFELRKTQTSMSLGTTREKTDRVKSTAYLSPQELEDVFYQYDVKSEIYSFGIVLWEIATGDIPFQGCNSEKIRKLVAVKRQQEPLGEDCPSELREIIDECRAHDPSVRPSVDEILKKLSTFSK
notes: human MLKL, residues 2–471; Elutes as oligomer (tetramer) and monomer peaks; the peaks were pooled except where indicated; Native MS used the oligomer SEC fraction; also called hMLKL; wild-type hMLKL; source: Sf21 insect cells (baculovirus), purified (glutathione agarose, TEV cleavage, Superdex S200); not shown: GST, N-terminal, cleaved
B2: Streptavidin-binding peptide (SBP)-tagged human RIPK3 kinase domain (residues 2–356) (domain or fragment, UniProt Q9Y572 2-356, looked up)
chain: SCVKLWPSGAPAPLVSIEELENQELVGKGGFGTVFRAQHRKWGYDVAVKIVNSKAISREVKAMASLDNEFVLRLEGVIEKVNWDQDPKPALVTKFMENGSLSGLLQSQCPRPWPLLCRLLKEVVLGMFYLHDQNPVLLHRDLKPSNVLLDPELHVKLADFGLSTFQGGSQSGTGSGEPGGTLGYLAPELFVNVNRKASTASDVYSFGILMWAVLAGREVELPTEPSLVYEAVCNRQNRPSLAELPQAGPETPGLEGLKELMQLCWSSEPKDRPSFQECLPKTDEVFQMVENNMNAAVSTVKDFLSQLRSSNRRFSIPESGQGGTEMDGFRRTIENQHSRNDVMVSEWLNKLNLEE
notes: human RIPK3 kinase domain, residues 2–356; The His6 fusion is TEV protease-cleavable; also called SBP-hRIPK3; hRIPK3 kinase domain; source: Sf21 insect cells (bacmid from pFastBac Htb); not shown: SBP, N-terminal, kept
B3: K331N human MLKL (residues 2–471), recombinant (natural protein, UniProt Q8NB16 2-471, looked up)
chain: B1 chain with K330N
notes: human MLKL, residues 2–471, with K331N in the pseudocatalytic loop; also called K331N hMLKL; K331N hMLKL(2–471); source: Sf21 insect cells (baculovirus), purified (glutathione agarose, TEV cleavage, Superdex S200); not shown: GST, N-terminal, cleaved

Assays:
[1] = molecular target: the molecule itself; experiment: native MS; 250 mM ammonium acetate, nano electrospray; wild type: the oligomer SEC fraction; self-association
[2] = molecular target: B1; experiment: SPR; SBP-hRIPK3 (2–356) immobilised on a streptavidin chip (Biacore SA); hMLKL flowed over at 1, 0.5, 0.25, 0.125, 0.0625 and 0 μM, 30 μL/min; 20 mM HEPES pH 8.0, 200 mM NaCl; 25 °C; conditions: both partners purified
[3] = molecular target: the molecule itself; experiment: AUC; sedimentation velocity, 0.25, 0.5 or 1 mg/mL hMLKL, 20 mM HEPES pH 7.5, 200 mM NaCl, 50,000 rpm, 20 °C; at 1 mg/mL also with 300 μM ATP; self-association (tetramer and monomer)

For B1, the “stoichiometry N” value [1] was 4.

B2: binds [2].

With B3 the “stoichiometry N” value [3] was 4.
